From patent US20100015126A1, “Methods of Binding of Cross-Beta Structures By Chaperones” (priority 2006, published 2010)

What was measured:
BiP-Sepharose = target: T1, BiP-Sepharose (Homo sapiens, UniProt P11021); assay: Experiment 2: BiP-Sepharose extraction from six synovial fluid samples of RA patients and mass spectrometry; format: binding; details: BiP-Sepharose eluate, synovial fluid of RA patient
T1 construct: The human BiP gene except the signal peptide encoding region was obtained from Geneart (Germany); linker […]; made in house; host or cells: HEK 293E cells, transient transfection, PABC674 vector; secreted into the medium
T1 sequence (P11021 19-654): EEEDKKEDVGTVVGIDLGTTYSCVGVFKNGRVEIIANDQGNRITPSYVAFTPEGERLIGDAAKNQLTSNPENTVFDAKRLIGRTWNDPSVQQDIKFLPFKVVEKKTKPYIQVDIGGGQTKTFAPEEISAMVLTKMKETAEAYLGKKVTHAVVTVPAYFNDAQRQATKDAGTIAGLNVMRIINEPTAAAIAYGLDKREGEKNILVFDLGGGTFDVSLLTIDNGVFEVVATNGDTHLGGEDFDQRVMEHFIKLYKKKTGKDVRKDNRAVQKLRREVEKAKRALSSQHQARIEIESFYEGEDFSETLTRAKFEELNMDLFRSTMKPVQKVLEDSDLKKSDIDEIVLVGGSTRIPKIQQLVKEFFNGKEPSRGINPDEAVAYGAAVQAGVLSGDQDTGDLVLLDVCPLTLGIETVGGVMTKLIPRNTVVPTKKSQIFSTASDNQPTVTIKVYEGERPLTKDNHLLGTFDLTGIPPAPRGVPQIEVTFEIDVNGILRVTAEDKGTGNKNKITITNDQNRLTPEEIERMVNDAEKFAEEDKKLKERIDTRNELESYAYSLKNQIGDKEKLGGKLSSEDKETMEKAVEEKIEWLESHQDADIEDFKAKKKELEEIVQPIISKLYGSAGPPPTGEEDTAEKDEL
Procedure: Six samples were incubated with the BiP-Sepharose, IgIV-Sepharose and the control-Sepharose: Normal pooled plasma, plasma of a patient I or of a patient II, with AL amyloidosis, serum of a patient III with RA (Rheumatoid Factor (RF) titer 682), control serum and synovial fluid of a patient IV with RA (RF titer 23). All samples were diluted 20× in HBS and applied to 200 μl beads in two volumes of 500 μl. One volume was incubated for 4 h at RT and supernatant was discarded after centrifugation (2 minutes at 1400 rpm). Subsequently, the second volume was applied to the same matrix and incubated overnight on a roller device at 4° C. […] To collect the eluates, the matrices were centrifuged and the two eluates were pooled for each sample.
Protein digests were desalted as described (Rappsilber et al., 2003), vacuum dried and dissolved in 2.5% formic acid.
For analysis of peptide mixtures, an Agilent 1100 HPLC system (Agilent Technologies) connected to a Thermo Finnigan LTQ-MS (Thermo Electron, Bremen, Germany) was used. Protein digests were injected on a trap column (Reprosil C18 RP (Dr Maisch, Germany), 20 mm×100 μm I.D.) at 5 μl/minute. Subsequently, the peptides were transferred with a split-reduced flow rate of 100 nL/minute solvent A (0.1 M acetic acid) on the analytical column (Reprosil C18 RP, 20 cm×50 μm I.D.). […] The column effluent was directly introduced into the ESI source of the mass spectrometer via a butt-connected nano-ESI emitter (New Objectives, Woburn, Mass.). The mass spectrometer was operated in the positive ion mode and parent ions were selected for fragmentation in data-dependent mode.
After mass spectrometric measurements, peak lists were generated using BioWorks software (Thermo Electron, Bremen, Germany). Protein identification was performed using Mascot software (www.matrixscience.com) by searching the IPIhuman database (version 3.24, downloaded from ftp://ftp.ebi.ac.uk/pub/databases/IPI/current) using the following settings: fully tryptic peptides, peptide tolerance 0.8 Da, MS/MS tolerance 0.9 Da, 1 missed cleavage allowed, carbamidomethyl (Cys) and oxidation (Met) as fixed and variable modification, respectively. The Scaffold software package (www.proteomesoftware.com) was used to parse the data and to filter peptides at a confidence level of 95%, allowing only protein identification with at least 2 peptides identified.
Those samples are listed below: • 1. […] One difference when compared to the protocol described above is that now with the twelve samples, elution buffer comprised 1 M NaCl. Again, a misfolded protein or a protein binding to misfolded protein is identified uniquely in the synovial fluid when no or a relatively very low number of fragments are detected in eluates of control-Sepharose.

human BiP [1] = target: T2, human BiP (Homo sapiens, UniProt P11021); assay: ELISA: binding of BiP-FLAG-His to immobilized (misfolded) protein ligands; details: ligands coated at 5 μg/ml; 6BB peptides and oxLDL 50 μg/ml
T2 construct: The human BiP gene except the signal peptide encoding region was obtained from Geneart (Germany); linker […]; made in house; host or cells: HEK 293E cells, transient transfection, PABC674 vector; secreted into the medium
T2 sequence (P11021 19-654): as above
Procedure: Enzyme Linked Immunosorbent Assay for Testing of Chaperone Binding to Misfolded Proteins
Binding of chaperones to immobilized (misfolded) protein ligands was determined using an enzyme linked immuno sorbent assay (ELISA) approach. For this purpose 50 μl/well of potential ligands at indicated concentrations or coat buffer only for control and background measurement purposes, were coated overnight at 4° C. or coated for 1 h at room temperature, with motion, in 50 mM NaHCO3 pH 9.6 (coat buffer). In general, ligands were coated at 5 μg/ml, unless stated otherwise. For example, BiP binding peptides 6BB# and oxLDL were coated at 50 μg/ml. Native haemoglobin (Sigma-Aldrich, H7379), albumin, IgIV Gammagard and ovalbumin controls were prepared from lyophilized stocks. The controls were prepared by dissolving lyophilized proteins at 1 mg/ml in PBS upon resuspending by pipetting, followed by a 30 minutes period at the roller device, at room temperature. The protein solutions were centrifuged for 10 minutes at 16,000*g and diluted in coat buffer. After coating the plates were washed at least three times with 50 mM Tris-HCl pH 7.3, 150 mM NaCl, 0.1% v/v Tween20, and blocked with Blocking reagent (Roche Diagnostics, Almere, The Netherlands; 11112589001), for 1 h at room temperature, with motion. Plates were washed three times and incubated in triplicate with indicated chaperone dilution series, at 50 μl/well, for 1 h at room temperature, with constant motion. For HSP90, 5 mM DTT is incorporated in the binding buffer (PBS/0.1% Tween20) to avoid unwanted disulfide bond formation of the HSP90. Plates were washed three times and incubated with anti-FLAG antibody (mouse antibody, M2, peroxidase conjugate; Sigma, A-8592) for BiP-FLAG-His, anti-His-tag antibody (Mouse Monoclonal Antibody, Cat. No. 70796, Novagen [0.2 mg/ml]) for HSP60, a 1:1 mix of 500-fold diluted anti-HSP90beta antibodies (Stressgen, SPA-643 [mouse monoclonal IgM], SPA-646 [rabbit polyclonal]) for HSP90 and an anti-DnaK antibody (Stressgen, 023SPA-880D [mouse monoclonal antibody]) for DnaK. After four wash cycles, secondary antibodies were added to the wells when required, 50 μl/well, for 45′ at room temperature, with motion. RAMPO and SWARPO were used at 3000 times dilution. […] In a second experiment with more immobilized misfolded proteins and controls, the detection of bound HSP90 with the mix of two anti-HSP90 antibodies was achieved by mixing 1:1500 SWARPO with 1:3000 RAMPO. After 5 washes with wash buffer followed by two washes with PBS, binding of antibodies was assessed. Bound anti-FLAG-PO, peroxidase-conjugated rabbit anti-mouse immunoglobulins (RAMPO, P0260, DAKOCytomation, Glostrup, Denmark) or peroxidase-coupled swine anti-rabbit immunoglobulins (SWARPO, P0217, DAKOCytomation) was visualized with tetramethylbenzidine (TMB, #45.01.20,/#45.014.01, Biosource, Nivelles, Belgium). The reaction was stopped after 5 minutes with 1% H2SO4 in H2O. Plates were read at 450 nm. Triplicates were averaged and standard deviations calculated. Background signals obtained with buffer-coated wells were subtracted (binding of primary antibody to empty wells), as well as background signals obtained with ligand-coated wells in which the chaperones were omitted (binding of primary and secondary antibody to coated ligands). Subsequently, sub-optimal concentrations of chaperones for binding to misfolded protein ligands are determined, and these concentrations are used for inhibition studies. […] We have previously identified that a sub-fraction of IgIV molecules has affinity for misfolded proteins comprising crossbeta structure (pending patent application). Moreover, we identified that the sub-fraction of IgIV molecules directly binds to crossbeta structure and/or crossbeta structure induced conformation (not shown; pending patent application). […]

human BiP [2] = target: T2, human BiP; assay: Competition ELISA: BiP binding to misfolded proteins under influence of crossbeta binding compounds
Procedure: Binding of chaperones to immobilized (misfolded) protein ligands was determined using an enzyme linked immuno sorbent assay (ELISA) approach. For this purpose 50 μl/well of potential ligands at indicated concentrations or coat buffer only for control and background measurement purposes, were coated overnight at 4° C. or coated for 1 h at room temperature, with motion, in 50 mM NaHCO3 pH 9.6 (coat buffer). In general, ligands were coated at 5 μg/ml, unless stated otherwise. For example, BiP binding peptides 6BB# and oxLDL were coated at 50 μg/ml. Native haemoglobin (Sigma-Aldrich, H7379), albumin, IgIV Gammagard and ovalbumin controls were prepared from lyophilized stocks. The controls were prepared by dissolving lyophilized proteins at 1 mg/ml in PBS upon resuspending by pipetting, followed by a 30 minutes period at the roller device, at room temperature. The protein solutions were centrifuged for 10 minutes at 16,000*g and diluted in coat buffer. After coating the plates were washed at least three times with 50 mM Tris-HCl pH 7.3, 150 mM NaCl, 0.1% v/v Tween20, and blocked with Blocking reagent (Roche Diagnostics, Almere, The Netherlands; 11112589001), for 1 h at room temperature, with motion. Plates were washed three times and incubated in triplicate with indicated chaperone dilution series, at 50 μl/well, for 1 h at room temperature, with constant motion. For HSP90, 5 mM DTT is incorporated in the binding buffer (PBS/0.1% Tween20) to avoid unwanted disulfide bond formation of the HSP90. […] After four wash cycles, secondary antibodies were added to the wells when required, 50 μl/well, for 45′ at room temperature, with motion. RAMPO and SWARPO were used at 3000 times dilution. […] In a second experiment with more immobilized misfolded proteins and controls, the detection of bound HSP90 with the mix of two anti-HSP90 antibodies was achieved by mixing 1:1500 SWARPO with 1:3000 RAMPO. After 5 washes with wash buffer followed by two washes with PBS, binding of antibodies was assessed. Bound anti-FLAG-PO, peroxidase-conjugated rabbit anti-mouse immunoglobulins (RAMPO, P0260, DAKOCytomation, Glostrup, Denmark) or peroxidase-coupled swine anti-rabbit immunoglobulins (SWARPO, P0217, DAKOCytomation) was visualized with tetramethylbenzidine (TMB, #45.01.20,/#45.014.01, Biosource, Nivelles, Belgium). The reaction was stopped after 5 minutes with 1% H2SO4 in H2O. Plates were read at 450 nm. Triplicates were averaged and standard deviations calculated. Background signals obtained with buffer-coated wells were subtracted (binding of primary antibody to empty wells), as well as background signals obtained with ligand-coated wells in which the chaperones were omitted (binding of primary and secondary antibody to coated ligands). Subsequently, sub-optimal concentrations of chaperones for binding to misfolded protein ligands are determined, and these concentrations are used for inhibition studies.
In a subsequent study we analysed whether BiP interacts directly with the crossbeta structure, by performing ELISA binding studies with a fixed sub-optimal concentration of BiP and concentration series of crossbeta binding compounds. The results are depicted in FIGS. 12, 13 and Table 7. Binding of BiP without added crossbeta binding compounds was set to 100%.

Substance	# of unique peptides (BiP-Sepharose; Sample 1B)	# of unique peptides (BiP-Sepharose; Sample 3B)	further results
Haptoglobin precursor	1	3	–
Apolipoprotein A-I precursor	3	8	–
KRLEVDIDIK [FP10, synthetic fibrin peptide without crossbeta structure (negative control)]	–	–	Binding of concentration series of BiP to coated ligand (human BiP [1]): did not bind
Serotransferrin precursor	–	–	# of unique peptides (BiP-Sepharose; Sample 5B): 1
187 kDa protein, complement component 3	2	–	# of unique peptides (BiP-Sepharose; Sample 5B): 1
IGKV1-5 protein, immunoglobulin kappa variable 1-5	3	5	–
Aβ1-40: amyloid-β 1-40 peptide coated in Example 7	–	–	Binding of concentration series of BiP to coated ligand (human BiP [1]): has been established
thrombin	–	–	Binding of concentration series of BiP to coated ligand (human BiP [1]): did not bind
LFWPFEWI [6BB9]	–	–	Binding of concentration series of BiP to coated ligand (human BiP [1]): has been established; Influence of Congo red on interaction of BiP with misfolded protein (human BiP [2]; fixed sub-optimal BiP concentration, concentration series of Congo red): ↓ (a ↓ sign refers to inhibited abolished binding of BiP); Influence of ThS on interaction of BiP with misfolded protein (human BiP [2]; fixed sub-optimal BiP concentration, concentration series of ThS): ↓ (a ↓ sign refers to inhibited abolished binding of BiP); Influence of ThT on interaction of BiP with misfolded protein (human BiP [2]; fixed sub-optimal BiP concentration, concentration series of ThT): ↓ (a ↓ sign refers to inhibited abolished binding of BiP)
Apolipoprotein B-100 precursor	9	12	–
Thioflavin S [ThS]	–	–	Influence on interaction of BiP with misfolded proteins comprising crossbeta structure (summary in words) (human BiP [2]; BiP binding without compound set to 100%): can either potentiate BiP binding, or inhibit
HSPA5 protein/BiP	21	19	# of unique peptides (BiP-Sepharose; Sample 2B): 12; # of unique peptides (BiP-Sepharose; Sample 4B): 10; # of unique peptides (BiP-Sepharose; Sample 5B): 10; # of unique peptides (BiP-Sepharose; Sample 6B): 17

More lines, main results first:

# of unique peptides (BiP-Sepharose; Sample 1B)	# of unique peptides (BiP-Sepharose; Sample 3B)	Substance	further results
1	1	Clusterin precursor	# of unique peptides (BiP-Sepharose; Sample 2B): 1
1	–	Apolipoprotein A-II precursor	–
1	1	Heat shock 70 kDa protein 1L	# of unique peptides (BiP-Sepharose; Sample 2B): 1; # of unique peptides (BiP-Sepharose; Sample 5B): 1; # of unique peptides (BiP-Sepharose; Sample 6B): 1
1	–	Vitronectin precursor	# of unique peptides (BiP-Sepharose; Sample 5B): 2; # of unique peptides (BiP-Sepharose; Sample 6B): 1
3	–	Isoform 1 of Fibrinogen alpha chain precursor	–
–	1	Neutrophil defensin 1 precursor	# of unique peptides (BiP-Sepharose; Sample 2B): 1
2	–	Single-chain Fv (Fragment), Ig heavy chain V-III region TRO	–
4	–	IGHG4 protein, immunoglobulin heavy constant gamma 4	# of unique peptides (BiP-Sepharose; Sample 2B): 1
–	1	Ig kappa chain V-IV region Len, immunoglobulin kappa variable 4-1	–
